Measured values published in US12384831 (SHINSHU UNIVERSITY, dated 2025).

Target: recombinant human LOX-1 (61-273aa) (human, UniProt P78380 61-273)
Test: sandwich ELISA, LOX-1 immobilized, detection by anti-ApoA I antibody
Procedure: The recombinant human LOX-1 (61-273aa) or protein Dectin-1 belonging to the same family with LOX-1 for the contrast reference was immobilized on the ELISA plate at 4° C. overnight. After washing with PBS, it was blocked by HEPES buffer including 3% BSA (10 mM HEPES, 150 mM NaCl, pH7.4). After washing PBS three times, oxidized HDL, HDL, oxidized LDL and LDL were respectively added thereto, and they were incubated. After washing with PBS, chicken anti-ApoA I monoclonal antibody (chicken monoclonal […]) or HRP-labeled anti-ApoA I polyclonal antibody (sheep polyclonal […]) was added thereto. When chicken anti-ApoA I monoclonal antibody was used, chicken anti-ApoA I monoclonal antibody was added thereto and reacted for 1 hour at room temperature and then it was washed with PBS and secondary antibody: HRP-labeled Donkey anti-chicken IgY was added and incubated for 1 hour at room temperature.
After the antibody response, it was washed with PBS for 5 times. And then, TMB solution was added onto the plate and made it react them at room temperature. After stopping the reaction by 2M sulfuric acid, the absorbency at 450 nm was determined by using SpectraMax 340PC384 (Molecular Devices) to detect the oxidized HDL bound. […]

binding result: binds
B1: fusion protein of Fv-type anti-LOX-1 antibody (#10-1) and human ApoA I (31-267aa) (other)
chain: EVKLLESGGGLVQPGGSLKLSCAVSGFDFSRYWMSWVRQAPGKGLEWIGEINPDSSTINFTPSLKDKFIVSRDNAKNTLYLQMSKVRSEDTALYYCARNDVLLGAMDYWGQGTSVTVSSGGGGSGGGGSGGGGSDVLMTQTPLSLPVSLGDQASISCRSSQTIVHSNGKTYLEWYLQKPGQSPKLLIYKVSNRFSGVPDRFSGSGSGTDFTLKISRVEAEDLGVYYCFQGSHVPLTFGAGTKLELKGGGGSGGGGSGGGGSPWDRVKDLATVYVDVLKDSGRDYVSQFEGSALGKQLNLKLLDNWDSVTSTFSKLREQLGPVTQEFWDNLEKETEGLRQEMSKDLEEVKAKVQPYLDDFQKKWQEEMELYRQKVEPLRAELQEGARQKLHELQEKLSPLGEEMRDRARAHVDALRTHLAPYSDELRQRLAARLEALKENGGARLAEYHAKATEHLSTLSEKAKPALEDLRQGLLPVLESFKVSFLSALEEYTKKLNTQ
notes: Expressed from the pEF6-V5-His vector in Expi293 cells, secreted and His-purified; also called chimeric protein; artificial recombinant protein
